Reference: IntAct's records for PubMed 11359767

B1: E3 ubiquitin-protein ligase NEDD4 (Homo sapiens), P46934 (parent)
chain: MAQSLRLHFAARRSNTYPLSETSGDDLDSHVHMCFKRPTRISTSNVVQMKLTPRQTALAPLIKENVQSQERSSVPSSENVNKKSSCLQISLQPTRYSGYLQSSNVLADSDDASFTCILKDGIYSSAVVDNELNAVNDGHLVSSPAICSGSLSNFSTSDNGSYSSNGSDFGSCASITSGGSYTNSVISDSSSYTFPPSDDTFLGGNLPSDSTSNRSVPNRNTTPCEIFSRSTSTDPFVQDDLEHGLEIMKLPVSRNTKIPLKRYSSLVIFPRSPSTTRPTSPTSLCTLLSKGSYQTSHQFIISPSEIAHNEDGTSAKGFLSTAVNGLRLSKTICTPGEVRDIRPLHRKGSLQKKIVLSNNTPRQTVCEKSSEGYSCVSVHFTQRKAATLDCETTNGDCKPEMSEIKLNSDSEYIKLMHRTSACLPSSQNVDCQININGELERPHSQMNKNHGILRRSISLGGAYPNISCLSSLKHNCSKGGPSQLLIKFASGNEGKVDNLSRDSNRDCTNELSNSCKTRDDFLGQVDVPLYPLPTENPRLERPYTFKDFVLHPRSHKSRVKGYLRLKMTYLPKTSGSEDDNAEQAEELEPGWVVLDQPDAACHLQQQQEPSPLPPGWEERQDILGRTYYVNHESRRTQWKRPTPQDNLTDAENGNIQLQAQRAFTTRRQISEETESVDNRESSENWEIIREDEATMYSNQAFPSPPPSSNLDVPTHLAEELNARLTIFGNSAVSQPASSSNHSSRRGSLQAYTFEEQPTLPVLLPTSSGLPPGWEEKQDERGRSYYVDHNSRTTTWTKPTVQATVETSQLTSSQSSAGPQSQASTSDSGQQVTQPSEIEQGFLPKGWEVRHAPNGRPFFIDHNTKTTTWEDPRLKIPAHLRGKTSLDTSNDLGPLPPGWEERTHTDGRIFYINHNIKRTQWEDPRLENVAITGPAVPYSRDYKRKYEFFRRKLKKQNDIPNKFEMKLRRATVLEDSYRRIMGVKRADFLKARLWIEFDGEKGLDYGGVAREWFFLISKEMFNPYYGLFEYSATDNYTLQINPNSGLCNEDHLSYFKFIGRVAGMAVYHGKLLDGFFIRPFYKMMLHKPITLHDMESVDSEYYNSLRWILENDPTELDLRFIIDEELFGQTHQHELKNGGSEIVVTNKNKKEYIYLVIQWRFVNRIQKQMAAFKEGFFELIPQDLIKIFDENELELLMCGLGDVDVNDWREHTKYKNGYSANHQVIQWFWKAVLMMDSEKRIRLLQFVTGTSRVPMNGFAELYGSNGPQSFTVEQWGTPEKLPRAHTCFNRLDLPPYESFEELWDKLQMAIENTQGFDGVD
partner: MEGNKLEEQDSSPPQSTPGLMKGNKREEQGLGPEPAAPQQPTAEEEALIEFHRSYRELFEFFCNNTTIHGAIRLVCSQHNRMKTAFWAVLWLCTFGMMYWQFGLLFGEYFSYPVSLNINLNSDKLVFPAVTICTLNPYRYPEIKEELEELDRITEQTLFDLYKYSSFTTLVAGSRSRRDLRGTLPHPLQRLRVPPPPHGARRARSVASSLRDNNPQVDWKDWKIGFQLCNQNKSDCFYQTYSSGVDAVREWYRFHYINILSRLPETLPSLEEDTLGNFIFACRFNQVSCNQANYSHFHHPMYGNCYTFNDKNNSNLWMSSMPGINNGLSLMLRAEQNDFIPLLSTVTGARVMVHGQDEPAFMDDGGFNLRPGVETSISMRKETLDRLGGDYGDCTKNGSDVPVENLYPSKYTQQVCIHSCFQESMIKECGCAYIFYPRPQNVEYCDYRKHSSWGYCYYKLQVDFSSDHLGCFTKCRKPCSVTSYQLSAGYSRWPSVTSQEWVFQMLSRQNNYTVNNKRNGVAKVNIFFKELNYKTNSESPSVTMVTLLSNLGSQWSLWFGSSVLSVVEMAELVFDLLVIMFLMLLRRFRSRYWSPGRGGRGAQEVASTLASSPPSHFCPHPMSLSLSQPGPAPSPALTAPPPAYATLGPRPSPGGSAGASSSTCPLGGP

Variants of: B1
Settings: with scnna_human SCNN1A

Variant	effect of a mutation on the interaction
V629W;H631G;I859W;H861G;I911W;H913G	disrupting interaction strength
V629W;H631G;V786W;H788G;I859W;H861G	disrupting interaction strength
V629W;H631G;V786W;H788G;I859W;H861G;I911W;H913G	disrupting interaction strength
V629W;H631G	with no effect

The next lines start with the values.

effect of a mutation on the interaction	Variant
with no effect	V629W;H631G;V786W;H788G;I911W;H913G
with no effect	V786W;H788G
disrupting interaction strength	V786W;H788G;I859W;H861G;I911W;H913G
disrupting interaction strength	I859W;H861G
with no effect	I911W;H913G
